The text below walks through data of a protein production outcome set (Wang et al. 2014).

This data set can be described thus: label from the status in PepcDB records.

On to “MDPFDAGQAQRGNGSTESSGREDREGEEAQWVGVLTHAVLAADDPANLGDSAPAEGGHDQMLEEWAAEEGQNPLEDRQEAVRRVNAWNQGELNLAMLRLTSLPPLPAGLHSLDASFNRLTSLPETLPDALNSLNVNGNQLVSLPALPAGLALLDVWSNRLTSLPETLPAALEGLNVGNNQLTSLPEALPARLESLDVSVNQLTSLPETLPASLGSLDVGVNQLTSLPETLPTSLGRLYLNDNQLTSLPTGLLTQLGAAAEVVVSGNPLPQEMLMNLDTIQSTDGYAGPRVVFDLSETHEDQWEDAAVAPFPLETVAAESLPEAVADWLNGDPKEGDPEVVAKWQSFAEEPGAQQYADFLNGLRNTVNSGNEGFQQGVANDLRQAAANPQLRAQYFQLALDANESCADRRTLTWNGMQTARLIANVENGLYDNNEGVAALVDLGRVMFRLEALGGIAREKVQSLRTGGTINNVDEIEVYLAYQATLRERLGLQHIAPDMNYFYDSHLTEEDIDRAETSVRSKEATGFADYLATDWKPWDDVVLRIEPEHHATMEEKLADALEEEFPGRLKQKLVEAGLIGAEADVVADAEREFGPQVSKDIAREIKGALRDTVLNKRGLSL”, for which the protein production result was “failed”.

With “MDPLLVTVITTCGKVFQFHVDRRRNVGYLKKRISKEGKGFPEVDDQEILFKGEKLDDNRIIDGICKDGNSVIHLLVKKS”, the protein production result is on record as “not failed”.

As to “MDPSSVIWIFFVFLFFYPQVLFRYRLLQRYKFIKQFEAVRKTRAIVMIHRQEQLALFGIPLYKYITIEDSEEILRAIRMTPEDMPIDLILHTPGGLVLASEQIAIALKEHKAKTTVIIPHYAMSGGSLIALAADEIIIDKNAVMGPVDPQIGQYPAASIINAINTKYTDELDDETLILGDIARKAIVQVKEFVYDILKDKMGEEKAKYLSETLSTGKWTHDYPLTINKLKDLGIEVNTELPNIVYELFDLYRQPVNQRPSVQYVPVPYKRGTK”, the protein production entry is reported as “failed”.

Take “MDQLSEKQIWYYHIIPEYQTEKSFYACVRRSGMIKFDTFYFPHMLSARETQRSIKFGDGVWSGCLYDPDIYTDGKISIQGVGGVLFPREAEIGGCVCLCLIFLIKLGLSTKYMKSHVSFDVSCDL”: the protein production result is on record as “failed”.

In the case of “MDQNAILLALGGIGAAALLSQWLAWRLRLPAILFLLLSGIVAGPLLGWLDPDEMFGPLLFPLVSLAVALILFEGSLTLHFSEWKEIGTVVHRMVTIGALSTWGVIALAAHYLLDFSWEMALLFGTLTLVTGPTVIVPMLRVVRPKAAVANILRWEGIVIDPIGALLAVVVYSFIISSGEGDGWLHSLQTFGGVILCGSLFGILGGWALGIVLRRHWLPDYLHNLATLAAVLGVFIASNRVMHESGLLAVTLMGMGLANMKGVDVRQILHFKENLSVLLISGLFILLAARLDINALLGLGPAALLVLLLIQFVARPLNVALSTWGSPLSWRERALLSWIAPRGIVAAAVSAIFAIRLSAEGHAQAALLVPLTFLVIIGTVVLQSATARPLARLLKVAEPSPSGYLIVGANPVGRAIGKALKSLGSRVLLTDSSWENIRAARMDNLPTYFGNPTSQHAEAHLDLVGIGHLLGVSPAGELNTLAAMRFRHEFGHRQLFGLPTSQEAKRTDKHRSSDEHRGRPLGQRPLTYAQFASLLSRGAEIRTTLLTDTFGWNDYQALHGESAILLFARDPNGRMHVATPQSTLAPGTGWTLLSLIDAEPSVSKSQATEIAD”, the protein production result was “failed”.

On to “MDQSTRARTRTAFAIDAVGQGAKAAVKAVWWTATGGLARSLTRPTEGPQARRFTPAAPPPVPGSLRRAYLEAFEKDARDVAAGLYPAIEDGPIRPSAALREAVDFLVDAFEVDQRRRRGDGAEVRNAADPSVYPNYYRQNFHYQSGGWFTAESAGRYDAQVEALFSGTAGAMRRRGLSLLARHWRGRDHRDAKILDVACGSGAFLKDLSAAFPRAALAGLDLSEAYLAKARKRTAVGGVKAKAETLPFGDATLDAVTCVYLFHELPPRVRPVVAASLARVLKPGGVLVLVDSVQPVDTPDLARLLEAFPVYFHEPYYSSYAETNLEALFAEAGLRLLDQDCAFLTKAMLFVKPGG”, for which the protein production entry is “failed”.

“MDRADLRIAVLMGTKDGAPFIDEQLQSLLAQSHPLIDLWISDDGSVDGTVPIIEAWKSRWTKGRVTLVQGPREGFAANFRSMILDRRIDADFYAFSDQDDVWEPDRLESAVQWMQAFGAEPPLMFCSRTATMTETGSLAGHSPLFRRPPSFRNALVQSIAGGNTILLNRAARDLLARASARTGFVSHDWWAYLVVTGAGGVVHYDPRPLVRYRQHAANLVGANVSWAARVSRLGRLFKGEFADWTDLNLAGLAVNRDLLTPDAATCLDLFASGRQGSLFQRLRTLLVSGVYRQTLAGTLGLYLAFVLGRILEHHHHHH”: the protein production entry was “failed”.

With “MDRGGVLRVAAAALPAYAYFYNVGSIGFWLPLHVRELGWPYTYITLIATWYFVAVTLATPLVGLLSDLTRRPGYILAGGMAVVAATSVAIPHVENPPLLMALRALQGLGLAVGLPIALGSLSLIQGVRRGVASTVIASGLGMSGGAFLSGLMVEYLGFPALFYAAAVPAALSTLVALGWRPPPPPSGSPGLLAALRSMPWEVLVVMAGIAVRNTFASGVFSVVSIIFNKIVGISYTATGVVLAINPAVQASVTTVFERIMRGRALLLYSTGLSGTALAFYLYLTAGSALDLAAAQIALGAFYGATVVSGNTMIIALAPSEIRYTASSLYTFAFNIGWILGTSIAGKVMDAAGVDAWIKLAIAGTLVSGLIPLTLLASPRARRI”, the protein production entry was “failed”.

For “MDRRIAMSLQVLGAGLGRTGTLSLKFALEHLGFGPCYHATEVAANMRTALPLWNAAERGAADWSAIFAGYRSSTDHPGCYYWRQLIEVYPQAKVVLTVRDPDSWFESVTQTILMPGRKSTFVGPEGETFSTFLKQQMGGRSQDRAFMVDYFNRWNQAVIDAVPSDRLLVFSSRQGWAPLCGFLSVPVPHKPYPHLHARPRLRWFTRGLRLPDDVAARERHVREYLQYLREDLFGLEHHHHHH”, the protein production entry is “not failed”.

On to “MDRSERLIQLISEEGIDAFLIMNIENSARASSVYFSGFTGSFSIILISENTRLLITDSRYTVQAKQETDFEVREVKGGDFIDVLKKTVNDLKIKTIALEEERVSLSLFRRISSAFGDRKFIGIDDEVKQMRMVK”, for which the protein production entry is on record as “failed”.

Regarding “MDRSLLMAIIMLVLGNNIVILSDSLIKLLDGFEAPFQFVLYRQISATLMLLPFMLLFKRPLLPKNIRWHATRAHIFLLGTVFMVISLTTLPLATANAIFYAAPIITVVLARMFFKERVTRLSLITAVLGMVGVLVIVNPSSTNIFALAALVVATTLALNNLLVKKLPAEHSILDTLYLTNLLGIPLASAMAWFEGASFDVSTFLISVGSSLFAMIYAGTCVFAYRAAESNKVTSAEYTGLIGAVILGIVFFTETPDARFYIGSVLIIAPLTVLTLRNSNRSA”, the protein production result is “failed”.

Regarding “MDRYIDGFMKWMPESLFICFILTFLVVTMSVLMTDSPFIGTEKTGGIIYGWVNGFWGLLSFAMQMTILLATGNAVASSPPAHKMFKSLAKLPQTRTQIFIFSIVVGSIFGFLHWGLGMMVAIVFGKELLVQARQKGIKVHTPLFVATLFFTFLPATSGLSGAAVLYSATPDYLRNSVADAYKQVVPESVPLTESVLNLPFISLLVVCMLVPLCFALLAHPKDETKIMELDDEIYHHSLDTASHVVIARNTPAEKMNASRLVMYLVGGAIVSYSLYHFSVVGLSGLDLNCFNFLFLGLGLLLCGQQGPEYYGSLFKDGVMSSWGLVLQFPFYAGIFGIIQSTGLGLEISHFFVAISNGTTWPVFAYLYSALLNIAVPSGGSKFVIEAPYIVPATIEVGNDLGKILQAYQLGDATTNLIVPFWALSYLSNFKLKFNQIVAYTIPCVLVVTGIAIIYLFVF”, the protein production entry is “failed”.

In the case of “MDSDETGFEHSGLWVSVLAGLLLGACQAHPIPDSSPLLQFGGQVRQRYLYTDDAQQTEAHLEIREDGTVGGAADQSPESLLQLKALKPGVIQILGVKTSRFLCQRPDGALYGSLHFDPEACSFRELLLEDGYNVYQSEAHGLPLHLPGNKSPHRDPAPRGPARFLPLPGLPPALPEPPGILAPQPPDVGSSDPLSMVGPSQGRSPSYAS”, the protein production entry is “failed”.

Consider “MDSEKALELVKHGATLLFLDVPQYTLVGIDTQIFAVGPAFKGIKMIPPGIHFVFYSSSTRDGREFSPTIGFFVDVAPSQVIVRKWNQQDEWLTKVSEEEEERYSQAVRSLEFDKNLGPYNLKQYGEWRHLSNYITKDVVEKFEPVGGEITVTYESAILKGGPKTAMEIALDTQMKKSKFTTSSTEQPKGNRFYYTSIPRIIKHKGMSGQELTSMNLDKTQLLESVLSKEYKDSEDLLLGELQFSFVAFLMGQSLESFMQWKSIVSLLLGCTSAPFQTRSQLFTKFIKVIYHQLKYGLQKENSGPETGIHALLDDSWLASDSFLHFLCKDFFALVEETSVVDGDLLSWTRKFKELLENRLGWEFQKKSAVDGIYFEEDDEYAPVVEMLDESHGEYMDKTT”, for which the protein production entry is on record as “failed”.

For the sequence “MDSGRLAVIALGGNAIAGPGMDVSVESQTAAVKRASSIIADVLADGWRSVITHGNGPQVGYLSEAFEALPPERPRQPLYIATAMTQAWIGLLLKHSLEEELRRRGLNVLVPVVISRVLVDVSDPSFNNPSKPVGPIYGREEAEELSRRYGWVFKRDPRGGFRRVVPSPRPVSIVDRDLIAEASAESPAVVALGGGGVPVVERPGGVLEPVEAVVDKDLASSLLATQLNADLLVILTDVPGVAVNYGREGERWLRRAAASELKKYLREGHFPPGSMGPKVEAAISFVERTGKPAVIGSLEEARQVLSLQAGTVVMLG”, the protein production entry was “not failed”.

Regarding “MDSITQAALGASIAGAVAGKTLGRSALLTGALLGTLPDLDVVIDYGTAVANFTQHRGFSHSLFILAPLSLLIAWGLWRWKPLISYQRWLALVGLILITHPLLDAFTTYGTQLFWPIGPPVAINSIFIIDPLYTLPLLAGCLAFLYRPPASRTVAAGLLVSSLYLGWTLIAQQIITDRVRPALANAGMEQAALMVQPMPFNTVLWRATAVSAGQRIEVVTGFLDASDELVLERFPRQPELARLVAELPEARRLEWFTGGFLDYQQNGTQITATDIRLGIPGAHPFTFILAETAEDGLQPLASDRLPRPALNRAALPLLWDRMTGQVPVLCLATLSVPNHGNSC”, the protein production result is recorded as “failed”.

On to “MDSLIPFDYATLRVLWWLLLGALLIGFAVMDGFDLGVAALLPLVAKTDVERRVVLNVVGPVWEGNQVWLITAGGAIFAAWPLLYAASFSGFYLAMMLVLIALILRPVGFKYRSKMEGTRWRSRWDAVLCFCGVVAALVFGVAMGNIILGVPFGFDAATLRPEYEGHFYQLFKPFALLAGLVSVAMMVMHGGVLLAWRTHDPVSSRARNWGRLAALVTAALFVAGGFWVAYGLDGHVITSAVDMHAPSNPMLKTVELQAGGWMANYEKWPLTWIAPALGVGGALLAFVLLSARANVLAFLASSVSIAGIILTVGFALFPFIMPSSSRPGAGLTVWDGSSSLLTLWIMLLAVAFFLPIITVYTAWVYRVMRGKVTEDSVDGTPNSY”, for which the protein production result is given as “failed”.

Regarding “MDSLMTLLSVLIPMFAGFFIRVPKPYLPALDKVLSVLVYAVLLLIGVSLSRVEDLGSRLDDMALTVLWLFVCTVGANLLALAVLGKLFP”, the protein production entry was “failed”.

Take “MDSRSLSVHDGAMQTLTVPDSGLAPLLPGQRLARGVCRHLRSHDFVSVVELVPAPGLRVDVMALGPKGEIWVVECKSSRADYQSDRKWQGYLDWCDRFFFAVDEAFPVDLLPEGTGLMLADGYDAEILRIGPEGRLAPARRKAVIQGFARHAALRLQGLRDPGAFPG”: the protein production result is reported as “failed”.

Turning to “MDSSLSQKFTLAYASLLGVGGLMGYLKRGSKISLVAGGGSAALFYYVYTELPGNPVLASSIGIVGSAALTGMMGSRYLRTRKVVPAGLVSVVSLVMTGAYLHGLIRSS”, the protein production result is listed as “failed”.
